This note sets out measurements from patent US20240043568A1 (KEYMED BIOSCIENCES, published 2024).

The target of assay [1] is T1, FcγRI with His tag (UniProt P12314 16-288).
T1 construct: Bought protein; also called FcγRI (Sino Biological #10256-H08H)
Briefly: SPR, His-tagged FcγRI captured by anti-His antibody on the chip, antibody as analyte [row FcγRI, column GPC3×CD3 κλ002]. The protocol: (§1) 50 μg/mL His-Tag antibodies were conjugated to a CMS chip through amino groups, and recombinant proteins FcγRI, FcγRIIAH131, and FcγRIIIAV158 with His tags (Sino Biological, #10256-H08H/10374-H08H1/10389-H08H1) were respectively captured for a capture time of 40 s at a flow rate of 10 μL/min. After the baseline was stable, the gradient-diluted antibody (the initial concentration of 37.5 μg/mL, 2-fold dilution) flowed through the chip at a flow rate of 30 μL/min, with a binding time of 120 s and a dissociation time of 200 s. The affinity constants were obtained by fitting them with Biacore evaluation software. It can be seen from FIG. 22 that the GPC3×CD3κλ bispecific antibody has no binding to FcγRI, FcγRIIAH131, and FcγRIIIAV158; The wild-type IgG4 control antibody can bind to FcγRI with high affinity and weakly bind to Fcγ RIIAH131.
A general note: Surface plasmon resonance follows binding to a sensor surface in real time, without labels.

Assay [2] addresses T1, FcγRI with His tag. As to the kind of experiment: SPR, His-tagged FcγRI captured by anti-His antibody on the chip, antibody as analyte [row FcγRI, column GPC3×CD3 κλ003]. The protocol: as §1
For assay [3], the target named is T2, FcγRIIAH131 with His tag (UniProt P12318 34-218).
T2 construct: Bought protein; also called Fcγ RIIAH131 (Sino Biological #10374-H08H1)
T2 sequence (looked up): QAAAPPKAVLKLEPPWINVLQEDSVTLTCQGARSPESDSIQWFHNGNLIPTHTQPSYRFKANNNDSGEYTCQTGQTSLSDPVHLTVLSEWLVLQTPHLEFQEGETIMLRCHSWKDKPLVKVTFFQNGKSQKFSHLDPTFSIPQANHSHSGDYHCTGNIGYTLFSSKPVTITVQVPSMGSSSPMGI
Briefly: SPR, His-tagged FcγRIIAH131 captured by anti-His antibody on the chip, antibody as analyte [row FcγRIIAH131, column GPC3×CD3 κλ003]. The protocol: as §1

T1 sequence (P12314 16-288 limits assumed): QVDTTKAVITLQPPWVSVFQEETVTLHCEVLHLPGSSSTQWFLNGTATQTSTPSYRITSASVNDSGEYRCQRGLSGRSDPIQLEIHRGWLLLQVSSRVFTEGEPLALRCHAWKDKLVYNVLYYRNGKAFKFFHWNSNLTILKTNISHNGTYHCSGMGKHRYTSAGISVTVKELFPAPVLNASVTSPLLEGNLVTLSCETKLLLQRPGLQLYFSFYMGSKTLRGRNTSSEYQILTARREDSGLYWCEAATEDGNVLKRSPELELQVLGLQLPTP

B1: GPC3×CD3 κλ002 (bispecific antibody, human IgG4 S228P, kappa, lambda)
light 1: DVVMTQSPLSLPVTPGEPASISCRSSQSIVHSNGNTYLEWYLKKPGQSPQLLIYKVSNRFSGVPDRFSGSGSGTDFTLKISRVEAEDVGVYFCLQVTHVPLTFGQGTKLEIKRTVAAPSVFIFPPSDEQLKSGTASVVCLLNNFYPREAKVQWKVDNALQSGNSQESVTEQDSKDSTYSLSSTLTLSKADYEKHKVYACEVTHQGLSSPVTKSFNRGEC
heavy 1: QVQLVQSGAEVKKPGSSVKVSCKASGYTFADYEIHWVREAPGQGLEWMGAIHPGSGGTAYAQKFQGRVTLTADESSTTAYMELSSLRSEDTAVYYCTRYYSFAYWGQGTLVTVSSASTKGPSVFPLAPCSRSTSESTAALGCLVKDYFPEPVTVSWNSGALTSGVHTFPAVLQSSGLYSLSSVVTVPSSSLGTKTYTCNVDHKPSNTKVDKRVESKYGPPCPPCPAPEFEGGPSVFLFPPKPKDTLMISRTPEVTCVVVDVSQEDPEVQFNWYVDGVEVHNAKTKPREEQFNSTYRVVSVLTVLHQDWLNGKEYKCKVSNKGLASSIEKTISKAKGQPREPQVCTLPPSQEEMTKNQVSLSCAVKGFYPSDIAVEWESNGQPENNYKTTPPVLDSDGSFFLVSKLTVDKSRWQEGNVFSCSVMHEALHNHYTQKSLSLSLGK
light 2: QAVVTQEPSLTVSPGGTVTLTCRSSTGAVTTSNYANWVQEKPGQAPRGLIGGTNKRAPWTPARFSGSLLGGKAALTITGAQAEDEAEYYCVLWYSNLWVFGGGTKLTVLGQPKAAPSVTLFPPSSEELQANKATLVCLISDFYPGAVTVAWKADSSPVKAGVETTTPSKQSNNKYAASSYLSLTPEQWKSHRSYSCQVTHEGSTVEKTVAPTECS
heavy 2: EVQLVESGGGLVQPGGSLRLSCAASGFTFNTYAMNWVRKAPGKGLEWVGRIRSKYNNYATYYADSVKDRFTISRDDSKNSLYLQMNSLKTEDTAVYYCVRHGNFGNSYVSWFAYWGQGTLVTVSSASTKGPSVFPLAPCSRSTSESTAALGCLVKDYFPEPVTVSWNSGALTSGVHTFPAVLQSSGLYSLSSVVTVPSSSLGTKTYTCNVDHKPSNTKVDKRVESKYGPPCPPCPAPEFEGGPSVFLFPPKPKDTLMISRTPEVTCVVVDVSQEDPEVQFNWYVDGVEVHNAKTKPREEQFNSTYRVVSVLTVLHQDWLNGKEYKCKVSNKGLASSIEKTISKAKGQPREPQVYTLPPCQEEMTKNQVSLWCLVKGFYPSDIAVEWESNGQPENNYKTTPPVLDSDGSFFLYSKLTVDKSRWQEGNVFSCSVMHEALHNHYTQKSLSLSLGK
notes: also called GPC3 x CD3 κλ002; GPC3×CD3κλ bispecific antibody
In the case of B1, the binding result in assay [1] is reported as “no binding”.

B2: GPC3×CD3 κλ003 (bispecific antibody, human IgG4 S228P, kappa, lambda)
light 1: DVVMTQSPLSLPVTPGEPASISCRSSQSIVHSNGNTYLEWYLKKPGQSPQLLIYKVSNRFSGVPDRFSGSGSGTDFTLKISRVEAEDVGVYFCLQVTHVPLTFGQGTKLEIKRTVAAPSVFIFPPSDKKLKSGTASVVCLLNNFYPREAKVQWKVDNALQSGNSQESVTEQDSKDSTYSLSSTLTLSKADYEKHKVYACEVTHQGLSSPVTKSFNRGEC
heavy 1: QVQLVQSGAEVKKPGSSVKVSCKASGYTFADYEIHWVREAPGQGLEWMGAIHPGSGGTAYAQKFQGRVTLTADESSTTAYMELSSLRSEDTAVYYCTRYYSFAYWGQGTLVTVSSASTKGPSVFPLAPCSRSTSESTAALGCLVEDYFPEPVTVSWNSGALTSGVHTFPAVLQSSGLYSLSSVVTVPSSSLGTKTYTCNVDHKPSNTKVDERVESKYGPPCPPCPAPEFEGGPSVFLFPPKPKDTLMISRTPEVTCVVVDVSQEDPEVQFNWYVDGVEVHNAKTKPREEQFNSTYRVVSVLTVLHQDWLNGKEYKCKVSNKGLASSIEKTISKAKGQPREPQVCTLPPSQEEMTKNQVSLSCAVKGFYPSDIAVEWESNGQPENNYKTTPPVLDSDGSFFLVSKLTVDKSRWQEGNVFSCSVMHEALHNHYTQKSLSLSLGK
light 2: QAVVTQEPSLTVSPGGTVTLTCRSSTGAVTTSNYANWVQEKPGQAPRGLIGGTNKRAPWTPARFSGSLLGGKAALTITGAQAEDEAEYYCVLWYSNLWVFGGGTKLTVLGQPKAAPSVTLFPPSSEELQANKATLVCLISDFYPGAVTVAWKADSSPVKAGVETTTPSKQSNNKYAASSYLSLTPEQWKSHRSYSCQVTHEGSTVEKTVAPTECS
heavy 2: EVQLVESGGGLVQPGGSLRLSCAASGFTFNTYAMNWVRKAPGKGLEWVGRIRSKYNNYATYYADSVKDRFTISRDDSKNSLYLQMNSLKTEDTAVYYCVRHGNFGNSYVSWFAYWGQGTLVTVSSASTKGPSVFPLAPCSRSTSESTAALGCLVKDYFPEPVTVSWNSGALTSGVHTFPAVLQSSGLYSLSSVVTVPSSSLGTKTYTCNVDHKPSNTKVDKRVESKYGPPCPPCPAPEFEGGPSVFLFPPKPKDTLMISRTPEVTCVVVDVSQEDPEVQFNWYVDGVEVHNAKTKPREEQFNSTYRVVSVLTVLHQDWLNGKEYKCKVSNKGLASSIEKTISKAKGQPREPQVYTLPPCQEEMTKNQVSLWCLVKGFYPSDIAVEWESNGQPENNYKTTPPVLDSDGSFFLYSKLTVDKSRWQEGNVFSCSVMHEALHNHYTQKSLSLSLGK
notes: also called GPC3 x CD3 κλ003; GPC3×CD3κλ bispecific antibody
B2: the binding result in assay [2] and in assay [3] was “no binding” each time.
